For 15 variants, reverse-splicing fitness results are on record in the RNAGym collection of RNA variant scans (doi:10.1093/molbev/msab373).

B1: Azoarcus group I ribozyme (parent)
chain: GUGCCUUGCGCCGGGAAACCACGCAAGGGAUGGUGUCAAAUUCGGCGAAACCUAAGCGCCCGCCCGGGCGUAUGGCAACGCCGAGCCAAGCUUCGGCGCCUGCGCCGAUGAAGGUGUAGAGACUAGACGGCACCCACCUAAGGCAAACGCUAUGGUGAAGGCAUAGUCCAGGGAGUGGCGAAAGUCACACAAACCGG

The data set covers variants of B1. The data set is described as follows: reverse-splicing fitness (ratio to wild type); higher = more active; in vitro selection; Mg2+ level not given. An outline of the steps: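 An in vitro group I ribozyme library with randomized positions was T7-transcribed and gel-purified. In triplicate, 10 pmol RNA in EPPS pH 7.5 was reacted with 50 pmoles of a 30-nt RNA substrate for 1 h at 37 °C across several added MgCl2 levels (1–48 mM), then stopped with EDTA. Products were reverse transcribed from a substrate-complementary primer, PCR-amplified and sequenced (HiSeq 4000). Fitness is a variant's read proportion after selection over that before, normalised to wild type.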
Consider GUGCCUUGCGCCGGGAAACCACGCAAGGGAUGGUGUCAAAUUCGGCGAAACCUAAGCGCCCGCCCGGGCGUAUGGCAACGCAGAGCCAAGCUUCGGCGCCUGCGCCGAUGGAGGUGUAGAGACUAGACGGCACCCACCUAAGGCAAACGAUAUGGUGAAGGCAUAGUCCAGGGAGUGGCGAAAGUCACACAAACCGG, for which the reverse-splicing fitness is 0.0352. The figure for GUGCCUUGCGCCGGGAAACCACGCAAGGGAUGGUGUCAAAUUCGGCGAAACCUAAGCGCCCGCCCGGGCGUAUGGCAACGCAGAGCCAAGCUUCGGCGCCUGCGCCGAUGCAGGUGUAGGGACUAGACGGCACCCACCUAAGGCGAACGAUAUGGUGAAGGCAUAGUCAAGGGAGUGGCGAAAGUCACACAAACCGG is 0.0099; for GUGCCUUGCGCCGGGAAACCACGCAAGGGAUGGUGUCAAAUUCGGCGAAACCUAAGCGCCCGCCCGGGCGUAUGGCAACGCUGAGCCAAGCUUCGGCGCCUGCGCCGAUGUAGGUGUAGGGACUAGACGGCACCCACCUAAGGCAAACGAUAUGGUGAAGGCAUAGUCAAGGGAGUGGCGAAAGUCACACAAACCGG it is 0.0103; for GUGCCUUGCGCCGGGAAACCACGCAAGGGAUGGUGUCAAAUUCGGCGAAACCUAAGCGCCCGCCCGGGCGUAUGGCAACGCUGAGCCAAGCUUCGGCGCCUGCGCCGAUGUAGGUGUAGUGACUAGACGGCACCCACCUAAGGCUAACGCUAUGGUGAAGGCAUAGUCGAGGGAGUGGCGAAAGUCACACAAACCGG it is 0.00303. For GUGCCUUGCGCCGGGAAACCACGCAAGGGAUGGUGUCAAAUUCGGCGAAACCUAAGCGCCCGCCCGGGCGUAUGGCAACGCUGAGCCAAGCUUCGGCGCCUGCGCCGAUGAAGGUGUAGGGACUAGACGGCACCCACCUAAGGCCAACGAUAUGGUGAAGGCAUAGUCCAGGGAGGGGCGAAAGUCACACAAACCGG, the reverse-splicing fitness was determined as 0.00372.

For GUGCCUUGCGCCGGGAAACCACGCAAGGGAUGGUGUCAAAUUCGGCGAAACCUAAGCGCCCGCCCGGGCGUAUGGCAACGCCGAGCCAAGCUUCGGCGCCUGCGCCGAUGGAGGUGUAGUGACUAGACGGCACCCACCUAAGGCAAACGCUAUGGUGAAGGCAUAGUCUAGGGAGAGGCGAAAGUCACACAAACCGG, the reverse-splicing fitness was determined as 0.0277. The figure for GUGCCUUGCGCCGGGAAACCACGCAAGGGAUGGUGUCAAAUUCGGCGAAACCUAAGCGCCCGCCCGGGCGUAUGGCAACGCUGAGCCAAGCUUCGGCGCCUGCGCCGAUGCAGGUGUAGCGACUAGACGGCACCCACCUAAGGCGAACGGUAUGGUGAAGGCAUAGUCCAGGGAGAGGCGAAAGUCACACAAACCGG is 0.00676; for GUGCCUUGCGCCGGGAAACCACGCAAGGGAUGGUGUCAAAUUCGGCGAAACCUAAGCGCCCGCCCGGGCGUAUGGCAACGCUGAGCCAAGCUUCGGCGCCUGCGCCGAUGCAGGUGUAGAGACUAGACGGCACCCACCUAAGGCGAACGAUAUGGUGAAGGCAUAGUCGAGGGAGGGGCGAAAGUCACACAAACCGG it is 0.00685; for GUGCCUUGCGCCGGGAAACCACGCAAGGGAUGGUGUCAAAUUCGGCGAAACCUAAGCGCCCGCCCGGGCGUAUGGCAACGCUGAGCCAAGCUUCGGCGCCUGCGCCGAUGCAGGUGUAGGGACUAGACGGCACCCACCUAAGGCCAACGCUAUGGUGAAGGCAUAGUCCAGGGAGUGGCGAAAGUCACACAAACCGG it is 0.0118. In the case of GUGCCUUGCGCCGGGAAACCACGCAAGGGAUGGUGUCAAAUUCGGCGAAACCUAAGCGCCCGCCCGGGCGUAUGGCAACGCUGAGCCAAGCUUCGGCGCCUGCGCCGAUGGAGGUGUAGAGACUAGACGGCACCCACCUAAGGCGAACGGUAUGGUGAAGGCAUAGUCGAGGGAGCGGCGAAAGUCACACAAACCGG, the reverse-splicing fitness amounted to 0.00848. In the case of GUGCCUUGCGCCGGGAAACCACGCAAGGGAUGGUGUCAAAUUCGGCGAAACCUAAGCGCCCGCCCGGGCGUAUGGCAACGCUGAGCCAAGCUUCGGCGCCUGCGCCGAUGCAGGUGUAGUGACUAGACGGCACCCACCUAAGGCCAACGAUAUGGUGAAGGCAUAGUCUAGGGAGGGGCGAAAGUCACACAAACCGG, the reverse-splicing fitness turned out to be 0.00207.

Regarding GUGCCUUGCGCCGGGAAACCACGCAAGGGAUGGUGUCAAAUUCGGCGAAACCUAAGCGCCCGCCCGGGCGUAUGGCAACGCGGAGCCAAGCUUCGGCGCCUGCGCCGAUGGAGGUGUAGGGACUAGACGGCACCCACCUAAGGCUAACGUUAUGGUGAAGGCAUAGUCAAGGGAGGGGCGAAAGUCACACAAACCGG, the reverse-splicing fitness came to 0.00619. Regarding GUGCCUUGCGCCGGGAAACCACGCAAGGGAUGGUGUCAAAUUCGGCGAAACCUAAGCGCCCGCCCGGGCGUAUGGCAACGCAGAGCCAAGCUUCGGCGCCUGCGCCGAUGUAGGUGUAGUGACUAGACGGCACCCACCUAAGGCCAACGUUAUGGUGAAGGCAUAGUCCAGGGAGGGGCGAAAGUCACACAAACCGG, the reverse-splicing fitness worked out at 0.00319.

Regarding GUGCCUUGCGCCGGGAAACCACGCAAGGGAUGGUGUCAAAUUCGGCGAAACCUAAGCGCCCGCCCGGGCGUAUGGCAACGCCGAGCCAAGCUUCGGCGCCUGCGCCGAUGUAGGUGUAGCGACUAGACGGCACCCACCUAAGGCGAACGGUAUGGUGAAGGCAUAGUCCAGGGAGUGGCGAAAGUCACACAAACCGG, the reverse-splicing fitness came to 0.0716. As for GUGCCUUGCGCCGGGAAACCACGCAAGGGAUGGUGUCAAAUUCGGCGAAACCUAAGCGCCCGCCCGGGCGUAUGGCAACGCGGAGCCAAGCUUCGGCGCCUGCGCCGAUGGAGGUGUAGGGACUAGACGGCACCCACCUAAGGCGAACGGUAUGGUGAAGGCAUAGUCUAGGGAGGGGCGAAAGUCACACAAACCGG, the reverse-splicing fitness is 0.00812.
